Article PMC4938799, “LD Motif Recognition by Talin: Structure of the Talin-DLC1 Complex” (Structure(London, England:1993), 2016)

Test system: A549 human non-small cell lung cancer line
Assay: Growth in soft agar
Format: cell-based
Settings: transfected A549, 3 weeks; mean over three experiments
Excerpt: Figure 6 Talin R8 Mutations Disrupt the Interaction with DLC1 and Affect Its Biological Activity (A) Wild-type GST-talin fragments pull down more DLC1 than the 2E mutants. Extracts of HEK293T cells transfected with GFP-DLC1 and GST-talin constructs were subjected to pull-down assays with glutathione beads followed by immunoblotting with anti-GST and anti-DLC1 on the same membrane (top). The transfected GFP-DLC1 in each sample is shown by the anti-DLC1 blot (bottom) as a loading control. (B) Wild-type GST-talin fragments compete efficiently with endogenous talin to form a complex with DLC1. The supernatants collected after pull-down assay from (A) were reused for co-immunoprecipitation with an anti-talin antibody and blotted with anti-DLC1 (top). A small aliquot from each lane was blotted for endogenous talin as a loading control (bottom). (C) Co-expression of GST or GST-talin fragments (wild-type or 2E mutant) with GFP DLC1 in A549 cells. […] Transfected A549 cells were cultured in G418 for 3 weeks, and colonies counted and quantitated (top). […] Transfected A549 cells were grown for 3 weeks in soft agar, and colonies counted and quantitated (top). […] Lysates from migrated cells were quantitated (top), and representative microscopic images of the migrated cells are shown (bottom). […]

B1: GST-R8: GST-tagged talin R8, amino acids 1,453–1,580 (protein)
chain: NSQAGQQGLVEPTQFARANQAIQMACQSLGEPGCTQAQVLSAATIVAKHTSALCNSCRLASARTANPTAKRQFVQSAKEVANSTANLVKTIKALDGDFTEENRAQCRAATAPLLEAVDNLSAFASNPE
modifications: left off: GST, end not stated, kept
**Q.** Which “growth in soft agar” value does the source give for B1 here?
**A.** no detectable biological activity
